Reference: patent US20230322947A1 (published 2023)

Molecular target: T1, cynomolgous CD3 on the cynomolgous T-cell line HSC-F (cynomolgus, UniProt Q95LI8 22-171; Q95LI7 23-181)
T1 chain: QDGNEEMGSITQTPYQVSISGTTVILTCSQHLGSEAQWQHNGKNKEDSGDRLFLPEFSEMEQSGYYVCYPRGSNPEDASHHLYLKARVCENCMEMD
Experiment: FACS binding

B1: bsIgG1 huCD3-H3L1×HER2-LFLEDA (bispecific antibody)
heavy 1: EVKLVESGGGLVKPGRSLRLSCAASGFTFNTYAMNWVRQAPGKGLEWVARIRSKYNNYATYYADSVKDRFTISRDDSKSILYLQMNSLKTEDTAMYYCVRHGNFGNSYVSWFAYWGQGTLVTVSS
VL 1: not shown
heavy 2: QVQLVQSGAEVKKPGASVKVSCKASGYTFTNYGISWVRQAPGQGLEWMGWLSAYSGNTIYAQKLQGRVTMTTDTSTTTAYMELRSLRSDDTAVYYCARDRIVVRPDYFDYWGQGTLVTVSS
VL 2: EIVLTQSPATLSLSPGERATLSCRASQSVSSYLAWYQQKPGQAPRLLIYDASNRATGIPARFSGSGSGTDFTLTISSLEPEDFAVYYCQQRSNWPRTFGQGTKVEIK
EC50: 3.54 µg/mL
